Patent US20020058247A1 (TRIPEP, published 2002)

Tests used:
[1] = biological target: T1, truncated recombinant form of HBeAg containing nine residues of pre-core and the 150 first residues of HBcAg (hepatitis B virus, UniProt P03146 1-150); assay: EIA, HBeAg on solid phase, fusion peptide 20 ug/well, gG2 mAb detection
T1 construct: domain: nine residues of pre-core;range 1-150; also called hepatitis B virus e antigen

[2] = biological target: serum HBeAg in HBeAg-transgenic mice (hepatitis B virus); assay: cell-based or functional assay
Sequence of serum HBeAg in HBeAg-transgenic mice (hepatitis B virus) (P0C573 20-183): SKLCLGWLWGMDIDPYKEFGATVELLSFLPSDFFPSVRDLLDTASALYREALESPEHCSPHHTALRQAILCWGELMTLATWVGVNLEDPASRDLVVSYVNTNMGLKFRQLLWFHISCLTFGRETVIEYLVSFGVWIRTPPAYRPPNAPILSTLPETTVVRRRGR

T1 sequence (P03146 1-150): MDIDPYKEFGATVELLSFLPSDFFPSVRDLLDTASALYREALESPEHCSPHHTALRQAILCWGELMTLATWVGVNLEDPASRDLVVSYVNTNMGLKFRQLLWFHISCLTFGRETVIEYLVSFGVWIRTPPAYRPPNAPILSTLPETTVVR

Which results are given for VKLSCKASGYIFTSHRGGPEE [VKLSCKASGYIFTSHRGGPEE (SEQ. ID. No. 74)]?
gG2 mAb binding (OD) [1]: 1.73 OD; Fold change in serum HBeAg levels by EIA in HBeAg-Tg mice, day 0 [2]: 1 fold; Fold change in serum HBeAg levels by EIA in HBeAg-Tg mice, day 1 [2]: 1.5 fold; Fold change in serum HBeAg levels by EIA in HBeAg-Tg mice, day 3 [2]: 2.3 fold; Fold change in serum HBeAg levels by EIA in HBeAg-Tg mice, day 6 [2]: 2.3 fold; Fold change in serum HBeAg levels by EIA in HBeAg-Tg mice, day 9 [2]: 3.3 fold
